This is an account of results in patent US20240327505A1 (published 2024).

The Kd is the constant that tells how readily two partners part at equilibrium. Read a high Kd as lower affinity. For orientation: koff means the first-order rate constant of dissociation. A low value points to a long-lived complex. Usually kon stands for the second-order rate constant of association. The low end stands for slow association, the high end for fast association.

The target in assay [1] is SARS-CoV-2 spike S1 protein (SARS-CoV-2, UniProt P0DTC2 16-685).
The target of assay [2] is SARS-CoV-2 spike S2 protein (SARS-CoV-2, UniProt P0DTC2 686-1213).
For assay [3], the target named is SARS-CoV-2 spike S1 protein (SARS-CoV-2, UniProt P0DTC2 16-685). This is another data set of the same source.

B1: AB-009722 (antibody, V domains shown)
VH: QVQLVQSGAEVRKPGSSVKVSCNVSGGIFNSYKITWVRQAPGQGLEWMGGIIAIFGTADYAQRFQGRLSITADESTSTAYMELSSLRSDDTAVYYCTRERFSNYFDPWGQGTLVTVSS
VL: EVVLTQSPATLSLSPGERATLSCRASQSVSSFLGWYQQKPGQAPRLLIYDASNRASGIPARFSGSGSGTDFTLTISKLEPEDFAVYYCQQRSRGPSGITFGQGTRLEIK
Regarding B1, in assay [1], the Kd is 41.2 nM, the koff was determined as 0.00236 s⁻¹ and the kon is 57300 M⁻¹ s⁻¹.

B2: AB-009123 (antibody, V domains shown)
VH: QVQLLQSGAEVRKPGASVKVSCKASGYTFSSYVMHWVRQAPGQGLEWMGWINTGNGNTRYSQKIQGRVTFTIDTAANTVNMEVSSLRSEDTAVYYCAREGLRATHYFDYWGRGTLVTVSS
VL: SYELTQPPSVSVSSGQTASIPCSGDRVGDRYVCWYQQKPGQSPVLVIYQDSKRPSGIPERFSGSNSGSTATLTISGTQAIDEADYYCQAWDSSTGGVFGGGTKLTVL
In assay [2], B2 registered a Kd of 18.9 nM, a koff of 0.000802 s⁻¹ and a kon of 42500 M⁻¹ s⁻¹.

B3: AB-009263 (antibody, V domains shown)
VH: EVQLVQSGAEVKKPGESLRISCQSSGYSFSTYWIAWVRQTPEKGLEWMGIIYPGDSDTRYSPTFQGQVTISADTSISTAYLQWSSLKASDTAVYYCARFRFNWLLSYYYYYMDVWGKGTTVSVSS
VL: QSALTQPDSVSGSPGQSIAISCTGTSRDVGGYNYVSWYQQHPGKAPKLMIYEVSNRPSGVSDRFSGSKSDNTASLTISGLQGDDEANYYCSSYTDSGTLVFGGGTKVTVL
For the molecule B3, in assay [2], the Kd is 0.0383 nM, the koff worked out at 3.82e-07 s⁻¹ and the kon turned out to be 9980 M⁻¹ s⁻¹.

B4: AB-009619 (antibody, V domains shown)
VH: QVQLVQSGAEVKKPGASVKVSCKVSGYTLIELSMHWVRQAPGKGLEWMGGFDPEDGETIYAQKFQGRVTMTEDTSTDTAYMELSSLRSEDTAVYYCATGPAAATSGWFDPWGQGTLVTVSS
VL: QSALTQPASVSGSPGQSITISCTGTSSDVGGYNYVSWYQQHPGKAPKLMIYDVSNRPSGVSNRFSGSKSGNTASLTISGLQAEDEADYYCSSYTSSSTRVFGGGTKLTVL
B4: in assay [1], binding was put at a Kd of 25.8 nM, the koff was 0.000726 s⁻¹ and the kon is 28100 M⁻¹ s⁻¹.

B5: AB-009078 (antibody, V domains shown)
VH: QITLKESGPTLVKPTQTLTLTCTFSGFSLSTSGVGVGWIRQPPGKALEWLALIYWDDDKRYSPSLKSRLTITKDTSKNQVVLTMTNMDPVDTATYYCAHRPGDFWSGYYRYWGQGTLVTVSS
VL: not shown
In assay [2], B5 came in with a Kd of 0.0474 nM, a koff of 2.44e-07 s⁻¹ and a kon of 5150 M⁻¹ s⁻¹.

B6: AB-009293 (antibody, V domains shown)
VH: QAQLVESGGGVVQPGRSLRLSCAASGFNFNNYGMHWVRLAAGKGLEWVAFISYEGSITHYADSVKGRFTVSRDFSKNTLYLQMNRLTTGDTAVYYCAKRREVLHLWRDEMDVWGQGTTVTVSS
VL: DIQMTQSPPSLSASVGDRVTFTCRASQDITNSLAWFQQRPGKAPKSLIYAASTLHSGVPSKFSGSGSGTDFTLTITSLQPEDVATYYCQQYKTYPFTFGQGTRLEIK
Take B6: in assay [2], the equilibrium dissociation constant (Kd) stood at 0.0628 nM, the koff came to 3.25e-07 s⁻¹ and the kon was determined as 5170 M⁻¹ s⁻¹.

B7: AB-009609 (antibody, V domains shown)
VH: QVQLVQSGAEVKKPGASVKVSCKVSGYTLTELSMHWVRQAPGKGLEWMGGFDPEDAETIYAQKFQGRVTMTEDTSTDTAYMELSSLRSEDTAVYYCATALAVTGTSDSYYYYYGMDVWGQGTTVTVSS
VL: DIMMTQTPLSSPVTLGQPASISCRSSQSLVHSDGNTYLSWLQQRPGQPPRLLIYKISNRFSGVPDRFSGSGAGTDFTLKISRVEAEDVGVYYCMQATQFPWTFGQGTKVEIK
In assay [1], B7 came in with a Kd of 49.4 nM, a koff of 0.00229 s⁻¹ and a kon of 46400 M⁻¹ s⁻¹.

B8: AB-009275 (antibody, V domains shown)
VH: QVTLRESGPALVKPTQTLTLTCTFSGFSLSTSGMRVSWIRQPPGKALEWLARIDWDDDKFYSTSLKTRLTISKDTSKNQVVLTMTNMDPVDTATYYCARSNYDILTGRLDAFDIWGQGTMVTVSS
VL: not shown
In assay [1], B8 returned a Kd of 127 nM, a koff of 0.00083 s⁻¹ and a kon of 6530 M⁻¹ s⁻¹.

B9: AB-009646 (antibody, V domains shown)
VH: QVQLVESGGGVVQPGRSLRLSCAASGFTFSSYAMHWVRQAPGKGLEWVAVISYDGSNKYYADSVKGRFTISRDNSKNTLYLQMNSLRAEDTAVYYCARACSSTSCYKGDAFDIWGQGTMVTVSS
VL: SYELTQPPSVSVSPGQTARITCSGDALPKQYAYWYQQKPGQAPVLVIYKDSERPSGIPERFSGSSSGTTVTLTISGVQAEDEADYYCQSADSSGTYSWVFGGGTKLTVL
In assay [1], B9 registered a Kd of 150 nM, a koff of 0.00231 s⁻¹ and a kon of 15500 M⁻¹ s⁻¹.

B10: AB-009280 (antibody, V domains shown)
VH: QVQLVESGGGVVQPGRSLRLSCAASGFTFSSYGMHWVRQAPGKGLEWVAVISYDGSNKYYADSVKGRFTISRDNSKNTLYLQMNSLRAEDTAVYYCAKSRGGGYYYYYMDVWGKGTTVTVSS
VL: DIQMTQSPSSLSASVGDRVTITCRASQGISNYLAWFQQKPGKAPKSLIYAASSLQSGVPSKFSGSGSGTDFTLTISSLQPEDFATYYCQQYNSYPPTFGQGTKLEIK
In assay [1], B10 showed a dissociation constant (Kd) of 20.5 nM, a koff of 0.000536 s⁻¹ and a kon of 26200 M⁻¹ s⁻¹.

B11: AB-009108 (antibody, V domains shown)
VH: QVQLQESGPGLVKPSETLALTCTVSGDSIINNNFYWGWLRQPPGQGLEWIGSLFHTGSAYYNSSLKSRVRSSVDTARNQISLRLSSVTAADTAVYYCARVNIVSVPAPPGAIEGWFDPWGQGTRVTVSP
VL: SYELTQPPSVSVSLGQTARISCSGDALPTKYVHWYQQKAGQAPVVVIFRDTERPSEIPERFSGSSSGTTVTLTISGVQAEDEADYYCQSVDGSGFYVFGSGTKVTVL
In assay [1], B11 gave a Kd of 94.3 nM, a koff of 0.0126 s⁻¹ and a kon of 134000 M⁻¹ s⁻¹.

B12: AB-009281 (antibody, V domains shown)
VH: EVQLVETGGGLIQPGGSLRLSCAASGFTVSSNYMSWVRQAPGKGLEWVSVIYSGGSTYYADSVKGRFTISRDNSKNTLYLQMNSLRAEDTAVYYCARDLYYYGMDVWGQGTTVTVSS
VL: DIQLTQSPSFLSASVGDRVTITCRASQGISSYLAWYQQKPGKAPKLLIYAASTLQSGVPSRFSGSGSGTEFTLTISSLQPEDFATYYCQQLNSYPTFGQGTKVEIK
In assay [3], B12 came in with a Kd of 16.7 nM, a dissociation rate constant (koff) of 0.00136 s⁻¹ and a kon of 81200 M⁻¹ s⁻¹.

B13: AB-009346 (antibody, V domains shown)
VH: EVQLVESGGGVVRPGGSLRLSCAASGFTFDDYGMSWVRQAPGKGLEWVSGINWNGGSTGYADSVKGRFTISRDNAKNSLYLQMNSLRAEDTALYYCARWPLLGISGYYHYYMDVWGKGTTVTVSS
VL: QSALTQPRSVSGSPGQSVTISCTGTSSDVGGYNYVSWYQQHPGKAPKLMIYDVSKRPSGVPDRFSGSKSGNTASLTISGLQAEDEADYYCCSYAGSYTLLFGGGTKLIVL
In the case of B13, in assay [3], the Kd is 12.5 nM, the koff was found to be 0.000523 s⁻¹ and the association rate constant (kon) stood at 41700 M⁻¹ s⁻¹.

B14: AB-009731 (antibody, V domains shown)
VH: QVQLVQSGAEVKKTGASVKLSCKASGYSLTSYAMHWVRQAPGQRLEWMGWLNGGNGNTKYSQKFQARVTITSDTSARTVYMELSSLTSEDTAVYYCARADHSTYWYGWFDPWGQGTLVTVSS
VL: QSVLTQPPSASGTPGQRVTISCSGSTSNIGSNYVFWYQQFPGTAPKLLIYRNDQRPSGVPDRFSASKAGTSASLAISGLRSEDEADYYCTSWDDSLNGPLFGGGTKLTVL
In assay [1], B14 came in with a Kd of 47.9 nM, a koff of 0.00294 s⁻¹ and a kon of 61400 M⁻¹ s⁻¹.

B15: AB-009117 (antibody, V domains shown)
VH: ELQLVESGGGLVKPGGSLRLSCTASGFTFISYSISWVRQAPGKGLEWVSSISSYSNYIFYGDSVKGRFNISRDNPKNSVYLQLNSLRAEDTAVYYCVRDTSFYEGGGYYNRFEPWGQGTRVTVSS
VL: EIVMTQSPATLSVSPGERATLSCRASQSISINLAWYQQRPGQAPRLLIYGASTRATGIPARFSGSGSGTEFTLTISSLQSEDSAVYYCQQYNNWPPYTFGQGTTLEIK
B15: in assay [2], binding was put at a Kd of 11.5 nM, the koff amounted to 0.000438 s⁻¹ and the kon is 38200 M⁻¹ s⁻¹.

B16: AB-009635 (antibody, V domains shown)
VH: not shown
VL: SYELTQPPSVSVSPGQTARITCSGDALPKKYAYWYQQKSGQAPVLVIYEDSKRPSGIPERFSGSSSGTMATLTISGAQVEDEADYYCYSTDSSGNHRVFGGGTKLTVL
As for B16, in assay [1], binding was characterised by a dissociation constant (Kd) of 10.5 nM, the koff came to 0.000749 s⁻¹ and the kon worked out at 71500 M⁻¹ s⁻¹.

B17: AB-009306 (antibody, V domains shown)
VH: QVQLVQSGAEVKKPGASVKVPCKASGYTFTSYQMHWVRRAPGQGLEWMGLIDPDTGGTRYTQNFQGRVTMTRDTSTTTVYMELNSLTSGDTAVYYCARGGRVGATYPYNMDVWGKGTTVTVSS
VL: SYELTQPPSVSVSPGQTARITCSGDALPKKYAYWYQQKSGQAPVLVIYEDSKRPSGIPERFSGSSSGTMATLTISGAQVEDDSDYYCFSTDSSGNHGVFGGGTRLTVL
In assay [2], B17 displayed a Kd of 0.22 nM, a koff of 2.44e-07 s⁻¹ and a kon of 1110 M⁻¹ s⁻¹.

B18: AB-009074 (antibody, V domains shown)
VH: QVQLVESGGGVVQPGRSLRLSCAASGFTFSSYGMHWVRQAPGKGLEWVAVIWYDGSNKYYADSVKGRFTISRDNSKNTLYLQMNSLRAEDTAVYYCAREGLVGATTGFDYWGQGTLVTVSS
VL: SYELTQPPSVSVSPGQTARITCSGDALPKKYAYWYQQKSGQAPVLVIYEDSKRPSGIPERFSGSSSGTMATLTISGAQVEDEADYYCYSTDSSGNHGVFGTGTKVTVL
Turning to B18, in assay [2], the Kd is 91.3 nM, the koff was 0.0011 s⁻¹ and the kon was 12000 M⁻¹ s⁻¹.

B19: AB-009637 (antibody, V domains shown)
VH: QVQLVQSGAEVKKPGSSVKVSCKASGGTFSSYAISWVRQAPGQGLEWMGGIIPILGTANYAQKFQGRVTITADKSTSTAYMELSSLRSEDTAMYYCAREGGFYGSGRNFDYWGQGTLVTVSS
VL: not shown
In assay [1], B19 returned a Kd of 412 nM, a koff of 0.000174 s⁻¹ and a kon of 421 M⁻¹ s⁻¹.

B20: AB-009634 (antibody, V domains shown)
VH: QVTLKESGPALVKPTQTLTLTCTFSGFSLSTSGMRVSWIRQPPGKALEWLARIDWDDDKFYSTSLKTRLTISKDTSKNQVVLTMTNMDPVDTATYYCARYYYYGMDVWGQGTTVTVSS
VL: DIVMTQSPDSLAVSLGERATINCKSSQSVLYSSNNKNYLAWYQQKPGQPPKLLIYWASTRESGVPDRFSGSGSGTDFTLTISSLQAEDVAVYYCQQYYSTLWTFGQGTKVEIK
In assay [1], B20 came in with a Kd of 24.8 nM, a koff of 0.000496 s⁻¹ and a kon of 20000 M⁻¹ s⁻¹.
